Data reported in the nanobody polyreactivity screen of Harvey et al. (2022).

Experiment: yeast display, Sf9 membrane polyspecificity reagent, FACS + sequencing; frameworks hold sequencing errors
Outline: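 Using colony PCR, genes from sorted yeast display clones were amplified, then sequenced on MiSeq at 2 × 250 and filtered by CDR length. The clones had been stained with 10% biotinylated, detergent-solubilized Sf9 membrane reagent for 1 hour at 4 °C and sorted by FACS into low and high (top ~1%) gates on anti-HA and streptavidin fluorescence. Polyreactivity labels come from the gate of origin.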

Row | Sequence | polyreactivity (PSR sort gate)
1 | QVQLVESGGGLVQAGGSLRLSCAASGSTFWLYAMGWYRQAPGKERELVATISERGGSTYYADSVKGRFTISRDNAKNTVYLQMNSLKPEDTAVYYCAADQFHYPRGRRYDYWGQGTQVTVSS | low polyreactivity
2 | QVQLVESGGGLVQAGGSLRLSCAASGSTFWNYAMGWYRQAPGKERELVASIDSSDGRTYYADSVKGRYTISRDNAKTTVYVQMNSLKPEDTAAYYCAKDAYAVELRPYSKLSSRAVGYWGQGTQVTVSS | low polyreactivity
3 | QVQLVESGGGLVQAGGSLRLSCAASGSTFWPNAMGWYRQAPGKERELVAGITTSSGSTFYAHSVKGRFTISRDNAKNTVYLQMNSLKPEDTAVYDCNARVRRRRYKYDYWGQGTQVTVSS | high polyreactivity
4 | QVQLVESGGGLVQAGGSLRLSCAASGSTFWPYALGWYRQAPVKERELVAAITNSGGSTYYADSVKGRFTISRDNAKNTVYLQMNSLKPEDTAVYYCAVRGVIYSYTPVNSYVFWGQGTQVTVSS | low polyreactivity
5 | QVQLVESGGGLVQAGGSLRLSCAASGSTFWPYAMGWYRQAPGKERELVAAISNGGGTKYADSVKGRFTISRDNAKNTVYLQMNSLKPEDTAVYYCAKTLWTGRAWYDYWGQGTQVTVSS | high polyreactivity
6 | QVQLVESGGGLVQAGGSLRLSCAASGSTFWPYAMGWYRQAPGKERELVAAITSSDVNTNYADSVKGRFTISRDNAKNTVYLQMNSLKPEDTAVYYCAADQYQYDPTYGYDYWGQGTQVTVSS | low polyreactivity
7 | QVQLVESGGGLVQAGGSLRLSCAASGSTFWSNPMGWYRQAPGKERELVAAISISDGNTYYADSVKGRFTISRDNAKNTVYLQMNSLKPDDTAVYYCATVGSEDGDPGFDYWGQGTQVTVSS | low polyreactivity
8 | QVQLVESGGGLVQAGGSLRLSCAASGSTFWSNVMGWYRQAPGKESELVSAISYGGVTTSYADSVKGRFTISRDNAKNTVYLQKNSLKPEDTAVYYCATDYVGYYFYVSDYWGQGTQVTVSS | low polyreactivity
9 | QVQLVESGGGLVQAGGSLRLSCAASGSTFWSYAMGWYRQAPGKEREFVAAISRSGDSTYYADSVKGRFTISRDNAKNTVYLQMNSLNPEDTAVYYCNAKLVRRSYGSYYYTYDYWGQGSQVTVSS | high polyreactivity
10 | QVQLVESGGGLVQAGGSLRLSCAASGSTFWSYTMGWYRQAPGKERELVAAISRSGGSTYYADSVKGRFTISRDNAKNTVYLQMNSLKPEDTAVYYCAADDRYGSRYYYWGQGTQVTVSS | high polyreactivity
11 | QVQLVESGGGLVQAGGSLRLSCAASGSTFWSYTMGWYRQAPWKERDLVARNTGRGGSTYYADSVKGRFTISRDNEKNTVYLLMNSLKTEDTAVYYCAAGGGRYGFYRFDYWRQGTQVTVSS | low polyreactivity
12 | QVQLVESGGGLVQAGGSLRLSCAASGSTFWTNAMGWYRQAPGKERELVATITYSTGTYADSVKGRFTISRDNAKNTVYLQMNSLKPEDTAVYYCAADFWYRTVYGYFGYVYWGQGTQVTVSS | low polyreactivity
13 | QVQLVESGGGLVQAGGSLRLSCAASGSTFWVNVMGWYRQAPGKERELVAAITTGSSPYYADSVKGRFTISRDNAKNTVYLQMNSLKPEDTAVYYCNVFQGTRYGYWGQGTQVTVSS | low polyreactivity
14 | QVQLVESGGGLVQAGGSLRLSCAASGSTFWWNTMGWYRQAPGKESELVADIRTSGGGTYYADSVKGRFTISRDNAKNTVYLQMNSLKPEDTAVYYCNADPKWEMGSWGQGTQVTVSS | low polyreactivity
15 | QVQLVESGGGLVQAGGSLRLSCAASGSTFWYNAMGWYRQAPGKERELVAAISRSGATTYYADSVKGRFTISRDNAKNTVYLQMNSLKPEDTAVYYCNAVISPSSYVRNSDYWGQGTQVTVSS | low polyreactivity
16 | QVQLVESGGGLVQAGGSLRLSCAASGSTFWYNAMGWYRQAPGTEREFVAAISSRGGNTFYADSVKGRFTISRDNAKNTVYLQMNSLKPEDTAVYYCDARFNRPYDYWGQGTQVTVSS | low polyreactivity
17 | QVQLVESGGGLVQAGGSLRLSCAASGSTFWYNDMGWYRQAPGKETELVASISWSGGDTYYADSVKGRFTISRDNAKNTVYLQMNSLKPEDTAVYYCAKGNNWISRLMDYWGQGTQVTVSS | low polyreactivity
18 | QVQLVESGGGLVQAGGSLRLSCAASGSTFWYYAMGWYRQAPGKERELVAAISRGGNTYYADSVKGRFTISRDNAKNTVYLQMNSLKPEDTAVYYCAARVHYWYPSTGHHYWGQGTQVTVSS | high polyreactivity
19 | QVQLVESGGGLVQAGGSLRLSCAASGSTFWYYAMGWYRQAPGKERELVAAITSGDSTYYADSVKGRFTISRDNAKNTVYLQMNSLKPEDTAVYYCAADLPWEDGYYFYSGYTEYDYWGQGTQVTVSS | low polyreactivity
20 | QVQLVESGGGLVQAGGSLRLSCAASGSTFWYYAMGWYRQAPGKERELVADITYSGVSTYYADSVKGRFTISRDNAKNTVYLQMNSLKPEDTAVYYCNADWGSVNGYSGYYYWGQGTQVTVSS | low polyreactivity
21 | QVQLVESGGGLVQAGGSLRLSCAASGSTFWYYTMGWYRQAPGKERELVAAISKSGTNTYYADSVKGRFTISRDQAKNTVYLQMNSLKPEDTAVDYCNALTKTGTPPDYDYWGQGTQVTVSS | high polyreactivity
22 | QVQLVESGGGLVQAGGSLRLSCAASGSTFWYYVMGWYRQAPGKERELVAAISTRGDSTYYADSVKGRFTISRDNAKNTVYLQMNSLKPEETAVYYCAKYRQSSGRVRFDYWGQGTQVTVSS | low polyreactivity

Row | Sequence | polyreactivity (PSR sort gate)
23 | QVQLVESGGGLVQAGGSLRLSCAASGSTFYANAMGWYIQPPGKERELVAAISRSGGRTYYADSVKGRFTISRDTAKKTVYLQMNSLKTEDNSVYYCAKAYHHSEFDYWGQGTQVTVSS | high polyreactivity
24 | QVQLVESGGGLVQAGGSLRLSCAASGSTFYANAMGWYRQAPGKERELVATINRRGNKYYADSVKGRFTISRDHAKNTVYLQMNSLKPEDTAVYYCAADAWVGWHDEYDYWGQGTQVTVSS | low polyreactivity
25 | QVQLVESGGGLVQAGGSLRLSCAASGSTFYANLMGWYRQAPGKEWEFVAAIDGSGGRTYYADSVKGRFTISRDNAKNTVYLQMNSLKPEVTAVYYCAKKRIVPVIQFGRDYNYWGQGKQVTVSS | high polyreactivity
26 | QVQLVESGGGLVQAGGSLRLSCAASGSTFYANVMGWYRQAPGKERELVAAIRWSGSSTYYADSVKGRFTISRDNAKNTVYLQMNSLKPEDTAVYYCNARYDFSYDYWGQGTQVTVSS | low polyreactivity
27 | QVQLVESGGGLVQAGGSLRLSCAASGSTFYASVMGWYRQAPGKERELVAGITWYGGSTYYADSVKGRFTISRDNAKNTVYLQMNSLKPEDTAVYYCAADYYNTYGYDYCGQGTQVTVSS | low polyreactivity
28 | QVQLVESGGGLVQAGGSLRLSCAASGSTFYAYAMGWYRQAPGKERELVAAISGSGGRTYYADSVKGRFTISRDNAKNTVYLQMNSLKPEDTAVYYCAASLTSRLPDPPRYYWGQGTQVTVSS | high polyreactivity
29 | QVQLVESGGGLVQAGGSLRLSCAASGSTFYAYAMGWYRQAPGKERELVAAISSDGSTNYADSVKGRFTISRDNAKNTVYLQMNSLKPEDTAVYYCAADDNGAWVRMDYWGQGTQVTVSS | low polyreactivity
30 | QVQLVESGGGLVQAGGSLRLSCAASGSTFYAYAMGWYRQAPGKERELVAGISKRVGRTYYADSVKGRFTISRDNAKNTVYLQMNSLKPEDTAVYYCNADVYAYPATWLDYWGQGTQVTVSS | high polyreactivity
31 | QVQLVESGGGLVQAGGSLRLSCAASGSTFYAYTMGWYRQAPGKEREFVAAISKSGGSTYYADSVKGRFTISRDNAKNTVYIQMNSLKPEDTAVYYCAARVYYRYDWGQGTQVTVSS | high polyreactivity
32 | QVQLVESGGGLVQAGGSLRLSCAASGSTFYDNTMGSYRQAPGKERELVAAITGTGGNTYYADSVKGRFTISRDNAKNTVYLQMNSLKPEDTAVYYCNRVPVYYYRYGYWGQGTQVTVSS | low polyreactivity
33 | QVQLVESGGGLVQAGGSLRLSCAASGSTFYDYAMGWYRQAPGKERELVAAISQSGGSTYYADSVKGRFTISRDNAKNTVYLQMNSLKPEDTAVYYCAADSGYSLYDYWGQCTQVTVSS | low polyreactivity
34 | QVQLVESGGGLVQAGGSLRLSCAASGSTFYDYAMGWYRQAPGTEREFVAAISGSAGSTYYADSVKGRFTISRDNAKNTVYLQMNSLKPEDTAVYYCATDYGWEDYNYWGQGTQVTVSS | low polyreactivity
35 | QVQLVESGGGLVQAGGSLRLSCAASGSTFYDYAMGWYRQAPWKERELVAAITSGGSTYADSVKGRFTISRYNAKNTVYLQMNSLKPEDTAVYYCNKDFVVEYWWHHVYVYYYLGDYWGQGTQVTVSS | low polyreactivity
36 | QVQLVESGGGLVQAGGSLRLSCAASGSTFYENTMGWYRQATGKERELVAAISFRGGSTYYADSVKGRFTISRDNAKNTVYLQMNSLKPEDTAVYYCNADDSPVPSIRFDYWGQGTQVTVSS | low polyreactivity
37 | QVQLVESGGGLVQAGGSLRLSCAASGSTFYEYAMGWYRQAPGKERELVATINWS | low polyreactivity
38 | QVQLVESGGGLVQAGGSLRLSCAASGSTFYFNAMGWSRQAPGKERELVAAIDWSGGSTYYADSVKGRFTISRDNAKNTVYLQMNSLKPEDTAVYYCITVPNRARISTLYGYDYWGQGTQVTVSS | low polyreactivity
39 | QVQLVESGGGLVQAGGSLRLSCAASGSTFYFNAMGWYRQAPGKERELVADINYSGTSTYYADSVKGRFTISRDNAKNTVYLQMTSLKPEDTAVYYCAKSLPSSNTSTSYDYWGQGTQVTVSS | low polyreactivity
40 | QVQLVESGGGLVQAGGSLRLSCAASGSTFYFNAMGWYRQAPGKERELVAGIRYSGSSTYYADSVKGRFTISRDNAKNTVYLQMNSLKPEYTAVYYCAAERWWYTVRGYGYWGQGTQVTVSS | high polyreactivity
41 | QVQLVESGGGLVQAGGSLRLSCAASGSTFYFNAMGWYRQAPGKERELVAGISSGGSTYYADSVKGRFTISRDNAKNTVYLQMNSLKPEDTAVYYCAADSDTFYYTGYDYDYWGQGTQVTVSS | low polyreactivity
42 | QVQLVESGGGLVQAGGSLRLSCAASGSTFYGNAMGWYRQAPGKERELVAAISRGGGSTYYADSVKGRFTISRDNAKNTVYLQMNSLKPEDTAVYYCAATRYLHPWYYPYYYWGQGTQVTVSS | low polyreactivity
43 | QVQLVESGGGLVQAGGSLRLSCAASGSTFYGNAMGWYRQAPGKERELVAAITWGDASTYYADSVKGRFTISRDNAKNTDYLQMNSLKPEDTAVYYCAVDESYGSSSDMDYWGQGTQVTVSS | low polyreactivity
